How the values were obtained:
HeLa Kyoto [1] = assay: solubility in G1/S (NP-40 vs SDS abundance) (log2 ratio); higher = more soluble; conditions: cell cycle stage: G1/S
HeLa Kyoto [2] = assay: melting temperature (median over replicates), in situ; higher = more thermally stable
HeLa Kyoto [3] = assay: solubility change mitosis vs G1/S (difference of NP-40 vs SDS log2 ratios) (log2 ratio difference); higher = more soluble in mitosis
HeLa Kyoto [4] = assay: thermal stability score vs G1/S (z-score of summed log2 fold changes over temperatures); higher = more thermally stable than in G1/S
[5] = cell cycle stage: early G1 (4.5 h after nocodazole release)
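Throughout, for melting temperature (median over replicates), in situ: HeLa Kyoto cells synchronized by double thymidine or nocodazole block, proteins quantified by TMT10plex mass spectrometry, three independent biological replicates.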
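Throughout, for solubility change mitosis vs G1/S (difference of NP-40 vs SDS log2 ratios): synchronized HeLa Kyoto cells (double thymidine block for G1/S, nocodazole release for mitosis), protein amounts in NP-40 versus SDS lysates quantified by mass spectrometry, three biological replicates.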
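Throughout, for solubility in G1/S (NP-40 vs SDS abundance): HeLa Kyoto cells arrested at G1/S by double thymidine block, proteins quantified by TMT10plex mass spectrometry in mild NP-40 versus SDS extracts, three biological replicates.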
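Throughout, for thermal stability score vs G1/S (z-score of summed log2 fold changes over temperatures): synchronized HeLa Kyoto cells, proteins quantified by TMT10plex mass spectrometry, three biological replicates, mitosis taken 0.5 h after nocodazole release, G1/S directly after double thymidine block.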

Substance | solubility in G1/S (log2) (HeLa Kyoto [1]) | melting temperature (HeLa Kyoto [2]; cell cycle stage: G1/S) | solubility change mitosis (log2) (HeLa Kyoto [3]) | thermal stability score (HeLa Kyoto [4]; [5]) | thermal stability score (HeLa Kyoto [4]; cell cycle stage: mitosis) | melting temperature (HeLa Kyoto [2]; cell cycle stage: mitosis)
MNRSHRHGAGSGCLGTMEVKSKFGAEFRRFSLERSKPGKFEEFYGLLQHVHKIPNVDVLVGYADIHGDLLPINNDDNYHKAVSTANPLLRIFIQKKEEADYSAFGTDTLIKKKNVLTNVLRPDNHRKKPHIVISMPQDFRPVSSIIDVDILPETHRRVRLYKYGTEKPLGFYIRDGSSVRVTPHGLEKVPGIFISRLVPGGLAQSTGLLAVNDEVLEVNGIEVSGKSLDQVTDMMIANSRNLIITVRPANQRNNVVRNSRTSGSSGQSTDNSLLGYPQQIEPSFEPEDEDSEEDDIIIEDNGVPQQIPKAVPNTESLESLTQIELSFESGQNGFIPSNEVSLAAIASSSNTEFETHAPDQKLLEEDGTIITL [PARD6B] | -0.226 | 51 °C | 0.0857 | -0.366 | -0.685 | –
MEGAKPTLQLVYQAVQALYHDPDPSGKERASFWLGELQRSVHAWEISDQLLQIRQDVESCYFAAQTMKMKIQTSFYELPTDSHASLRDSLLTHIQNLKDLSPVIVTQLALAIADLALQMPSWKGCVQTLVEKYSNDVTSLPFLLEILTVLPEEVHSRSLRIGANRRTEIIEDLAFYSSTVVSLLMTCVEKAGTDEKMLMKVFRCLGSWFNLGVLDSNFMANNKLLALLFEVLQQDKTSSNLHEAASDCVCSALYAIENVETNLPLAMQLFQGVLTLETAYHMAVAREDLDKVLNYCRIFTELCETFLEKIVCTPGQGLGDLRTLELLLICAGHPQYEVVEISFNFWYRLGEHLYKTNDEVIHGIFKAYIQRLLHALARHCQLEPDHEGVPEETDDFGEFRMRVSDLVKDLIFLIGSMECFAQLYSTLKEGNPPWEVTEAVLFIMAAIAKSVDPENNPTLVEVLEGVVRLPETVHTAVRYTSIELVGEMSEVVDRNPQFLDPVLGYLMKGLCEKPLASAAAKAIHNICSVCRDHMAQHFNGLLEIARSLDSFLLSPEAAVGLLKGTALVLARLPLDKITECLSELCSVQVMALKKLLSQEPSNGISSDPTVFLDRLAVIFRHTNPIVENGQTHPCQKVIQEIWPVLSETLNKHRADNRIVERCCRCLRFAVRCVGKGSAALLQPLVTQMVNVYHVHQHSCFLYLGSILVDEYGMEEGCRQGLLDMLQALCIPTFQLLEQQNGLQNHPDTVDDLFRLATRFIQRSPVTLLRSQVVIPILQWAIASTTLDHRDANCSVMRFLRDLIHTGVANDHEEDFELRKELIGQVMNQLGQQLVSQLLHTCCFCLPPYTLPDVAEVLWEIMQVDRPTFCRWLENSLKGLPKETTVGAVTVTHKQLTDFHKQVTSAEECKQVCWALRDFTRLFR [TNPO3] | -0.253 | 51.6 °C | -0.0891 | 0.188 | 1.24 | 51.7 °C
MAVPGVGLLTRLNLCARRRTRVQRPIVRLLSCPGTVAKDLRRDEQPSGSVETGFEDKIPKRRFSEMQNERREQAQRTVLIHCPEKISENKFLKYLSQFGPINNHFFYESFGLYAVVEFCQKESIGSLQNGTHTPSTAMETAIPFRSRFFNLKLKNQTSERSRVRSSNQLPRSNKQLFELLCYAESIDDQLNTLLKEFQLTEENTKLRYLTCSLIEDMAAAYFPDCIVRPFGSSVNTFGKLGCDLDMFLDLDETRNLSAHKISGNFLMEFQVKNVPSERIATQKILSVLGECLDHFGPGCVGVQKILNARCPLVRFSHQASGFQCDLTTNNRIALTSSELLYIYGALDSRVRALVFSVRCWARAHSLTSSIPGAWITNFSLTMMVIFFLQRRSPPILPTLDSLKTLADAEDKCVIEGNNCTFVRDLSRIKPSQNTETLELLLKEFFEYFGNFAFDKNSINIRQGREQNKPDSSPLYIQNPFETSLNISKNVSQSQLQKFVDLARESAWILQQEDTDRPSISSNRPWGLVSLLLPSAPNRKSFTKKKSNKFAIETVKNLLESLKGNRTENFTKTSGKRTISTQT [MTPAP] | -0.331 | 51 °C | 0.114 | 0.65 | 1.8 | 49.8 °C
MVLESVARIVKVQLPAYLKRLPVPESITGFARLTVSEWLRLLPFLGVLALLGYLAVRPFLPKKKQQKDSLINLKIQKENPKVVNEINIEDLCLTKAAYCRCWRSKTFPACDGSHNKHNELTGDNVGPLILKKKEV [CISD2] | 0.0551 | 54.2 °C | 0.0164 | -4.5 | -5.22 | 54.7 °C
MALLSTVRGATWGRLVTRHFSHAARHGERPGGEELSRLLLDDLVPTSRLELLFGMTPCLLALQAARRSVARLLLQAGKAGLQGKRAELLRMAEARDIPVLRPRRQKLDTMCRYQVHQGVCMEVSPLRPRPWREAGEASPGDDPQQLWLVLDGIQDPRNFGAVLRSAHFLGVDKVITSRRNSCPLTPVVSKSSAGAMEVMDVFSTDDLTGFLQTKAQQGWLVAGTVGCPSTEDPQSSEIPIMSCLEFLWERPTLLVLGNEGSGLSQEVQASCQLLLTILPRRQLPPGLESLNVSVAAGILLHSICSQRKGFPTEGERRQLLQDPQEPSARSEGLSMAQHPGLSSGPEKERQNEG [MRM1] | -0.178 | 53.3 °C | 0.0939 | -1.62 | -1.81 | 51.7 °C
MRRVTLFLNGSPKNGKVVAVYGTLSDLLSVASSKLGIKATSVYNGKGGLIDDIALIRDDDVLFVCEGEPFIDPQTDSKPPEGLLGFHTDWLTLNVGGRYFTTTRSTLVNKEPDSMLAHMFKDKGVWGNKQDHRGAFLIDRSPEYFEPILNYLRHGQLIVNDGINLLGVLEEARFFGIDSLIEHLEVAIKNSQPPEDHSPISRKEFVRFLLATPTKSELRCQGLNFSGADLSRLDLRYINFKMANLSRCNLAHANLCCANLERADLSGSVLDCANLQGVKMLCSNAEGASLKLCNFEDPSGLKANLEGANLKGVDMEGSQMTGINLRVATLKNAKLKNCNLRGATLAGTDLENCDLSGCDLQEANLRGSNVKGAIFEEMLTPLHMSQSVR [KCTD9] | 0.0627 | 52.3 °C | -0.2 | -0.393 | -1.4 | 51 °C
MVEADRPGKLFIGGLNTETNEKALETVFGKYGRIVEVLLIKDRETNKSRGFAFVTFESPADAKDAARDMNGKSLDGKAIKVEQATKPSFERGRHGPPPPPRSRGPPRGFGAGRGGSGGTRGPPSRGGHMDDGGYSMNFNMSSSRGPLPVKRGPPPRSGGPSPKRSAPSGLVRSSSGMGGRAPLSRGRDSYGGPPRREPLPSRRDVYLSPRDDGYSTKDSYSSRDYPSSRDTRDYAPPPRDYTYRDYGHSSSRDDYPSRGYGDRDGYGRDRDYSDHPSGGSYRDSYESYGNSRSAPLTRGPPPSYGGSSRYDDYSSSRDGYGGSRDSYSSSRSDLYSSCDRVGRQERGLPPSVERGYPSSRDSYSSSSRGAPRGAGPGGSRSDRGGGRSRY [RBMXL1] | -0.598 | 46.5 °C | 0.637 | -0.08 | 0.0725 | 51 °C
NUP205 | -0.671 | 52.1 °C | 0.203 | -4.5 | -6.17 | 48.8 °C
MGRGWGFLFGLLGAVWLLSSGHGEEQPPETAAQRCFCQVSGYLDDCTCDVETIDRFNNYRLFPRLQKLLESDYFRYYKVNLKRPCPFWNDISQCGRRDCAVKPCQSDEVPDGIKSASYKYSEEANNLIEECEQAERLGAVDESLSEETQKAVLQWTKHDDSSDNFCEADDIQSPEAEYVDLLLNPERYTGYKGPDAWKIWNVIYEENCFKPQTIKRPLNPLASGQGTSEENTFYSWLEGLCVEKRAFYRLISGLHASINVHLSARYLLQETWLEKKWGHNITEFQQRFDGILTEGEGPRRLKNLYFLYLIELRALSKVLPFFERPDFQLFTGNKIQDEENKMLLLEILHEIKSFPLHFDENSFFAGDKKEAHKLKEDFRLHFRNISRIMDCVGCFKCRLWGKLQTQGLGTALKILFSEKLIANMPESGPSYEFHLTRQEIVSLFNAFGRISTSVKELENFRNLLQNIH [ERO1A] | 0.338 | 54.2 °C | -0.161 | 5.02 | 7.63 | 54.6 °C

Source: the supplement of paper PMC5998384
